Common to all, as to experiment: flow cytometry on cells
In general terms: Flow cytometry measures light scatter and fluorescence of single cells or particles in a stream.

Experiment [1] addresses Y353, yeast surface-displayed ACE2(614) variant from sort 4 (human) (UniProt Q9BYF1).
The target of experiment [2] is best-characterized ACE2(614) mutant from sort 3.1, yeast surface-displayed (human) (UniProt Q9BYF1).
In experiment [3] the target is Y373, yeast surface-displayed ACE2(614) variant from sort 5 (human) (UniProt Q9BYF1).

Usually Kd stands for the equilibrium constant for the complex coming apart. High values mean lower affinity, low ones higher affinity. Take “SARS-CoV-2 spike RBD monomer (328-533), 8XHis tag and AviTag, biotinylated (from UniProt P0DTC2 328-533) (domain or fragment)”: the equilibrium dissociation constant (Kd) in experiment [1] was 0.19 nM; in experiment [2] it was 0.52 nM; in experiment [3] it was 0.12 nM.
